Results published in ChEMBL document CHEMBL1155272, “Nucleoside-5'-monophosphates as prodrugs of adenosine A2A receptor agonists activated by ecto-5'-nucleotidase” (J Med Chem, 2009).

Substrate: Nc1ncnc2c1ncn2[C@@H]1O[C@H](COP(=O)(O)O)[C@@H](O)[C@H]1O
Assay: Activity at alkaline phosphatase

B1: Alkaline phosphatase, tissue-nonspecific isozyme (Homo sapiens), P05186 (protein)
chain: MISPFLVLAIGTCLTNSLVPEKEKDPKYWRDQAQETLKYALELQKLNTNVAKNVIMFLGDGMGVSTVTAARILKGQLHHNPGEETRLEMDKFPFVALSKTYNTNAQVPDSAGTATAYLCGVKANEGTVGVSAATERSRCNTTQGNEVTSILRWAKDAGKSVGIVTTTRVNHATPSAAYAHSADRDWYSDNEMPPEALSQGCKDIAYQLMHNIRDIDVIMGGGRKYMYPKNKTDVEYESDEKARGTRLDGLDLVDTWKSFKPRYKHSHFIWNRTELLTLDPHNVDYLLGLFEPGDMQYELNRNNVTDPSLSEMVVVAIQILRKNPKGFFLLVEGGRIDHGHHEGKAKQALHEAVEMDRAIGQAGSLTSSEDTLTVVTADHSHVFTFGGYTPRGNSIFGLAPMLSDTDKKPFTAILYGNGPGYKVVGGERENVSMVDYAHNNYQAQSAVPLRHETHGGEDVAVFSKGPMAHLLHGVHEQNYVPHVMAYAACIGANLGHCAPASSAGSLAAGPLLLALALYPLSVLF
Km: 441 µM
